Numbering of substitutions follows the chain as printed.
T1: human EphA3 (Homo sapiens, UniProt P29320)
T1 construct: a protein of the extracellular region of each human Eph receptor fused with the SEAP protein and the His tag; made in house; host or cells: Expi293F cells (culture supernatant)
T1 sequence (P29320 21-541 limits assumed): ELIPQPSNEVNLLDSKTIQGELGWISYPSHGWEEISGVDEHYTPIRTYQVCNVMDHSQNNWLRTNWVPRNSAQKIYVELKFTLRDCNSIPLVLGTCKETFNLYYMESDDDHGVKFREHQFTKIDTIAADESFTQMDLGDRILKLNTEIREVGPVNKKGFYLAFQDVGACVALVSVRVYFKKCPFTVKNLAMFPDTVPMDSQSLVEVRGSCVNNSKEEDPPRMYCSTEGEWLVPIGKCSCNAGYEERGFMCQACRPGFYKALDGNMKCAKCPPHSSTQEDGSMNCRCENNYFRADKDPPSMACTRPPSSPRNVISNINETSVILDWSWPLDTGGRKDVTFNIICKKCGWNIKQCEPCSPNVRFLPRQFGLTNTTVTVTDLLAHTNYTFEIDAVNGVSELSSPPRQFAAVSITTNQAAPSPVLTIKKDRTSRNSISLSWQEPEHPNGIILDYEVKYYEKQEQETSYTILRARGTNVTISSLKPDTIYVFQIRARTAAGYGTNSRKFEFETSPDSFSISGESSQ

T2: human EphB2 (Homo sapiens, UniProt P29323)
T2 construct: a protein of the extracellular region of each human Eph receptor fused with the SEAP protein and the His tag; made in house; host or cells: Expi293F cells
T2 sequence (P29323 19-543 limits assumed): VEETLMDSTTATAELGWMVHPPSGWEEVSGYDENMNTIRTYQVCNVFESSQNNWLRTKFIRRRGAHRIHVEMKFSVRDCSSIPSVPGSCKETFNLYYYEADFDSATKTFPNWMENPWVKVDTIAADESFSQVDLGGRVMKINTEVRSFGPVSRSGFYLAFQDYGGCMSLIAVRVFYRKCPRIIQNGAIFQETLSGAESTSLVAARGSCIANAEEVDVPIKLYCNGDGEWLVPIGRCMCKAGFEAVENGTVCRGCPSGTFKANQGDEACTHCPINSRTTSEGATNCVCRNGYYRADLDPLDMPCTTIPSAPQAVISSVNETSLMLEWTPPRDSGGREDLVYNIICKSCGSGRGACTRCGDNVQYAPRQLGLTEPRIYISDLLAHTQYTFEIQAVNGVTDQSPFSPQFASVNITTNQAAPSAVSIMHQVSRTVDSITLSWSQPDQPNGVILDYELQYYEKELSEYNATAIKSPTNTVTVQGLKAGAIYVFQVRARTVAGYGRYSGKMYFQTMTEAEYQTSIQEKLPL

T3: human EphB4 (Homo sapiens, UniProt P54760)
T3 construct: a protein of the extracellular region of each human Eph receptor fused with the SEAP protein and the His tag; made in house; host or cells: Expi293F cells
T3 sequence (P54760 16-539 limits assumed): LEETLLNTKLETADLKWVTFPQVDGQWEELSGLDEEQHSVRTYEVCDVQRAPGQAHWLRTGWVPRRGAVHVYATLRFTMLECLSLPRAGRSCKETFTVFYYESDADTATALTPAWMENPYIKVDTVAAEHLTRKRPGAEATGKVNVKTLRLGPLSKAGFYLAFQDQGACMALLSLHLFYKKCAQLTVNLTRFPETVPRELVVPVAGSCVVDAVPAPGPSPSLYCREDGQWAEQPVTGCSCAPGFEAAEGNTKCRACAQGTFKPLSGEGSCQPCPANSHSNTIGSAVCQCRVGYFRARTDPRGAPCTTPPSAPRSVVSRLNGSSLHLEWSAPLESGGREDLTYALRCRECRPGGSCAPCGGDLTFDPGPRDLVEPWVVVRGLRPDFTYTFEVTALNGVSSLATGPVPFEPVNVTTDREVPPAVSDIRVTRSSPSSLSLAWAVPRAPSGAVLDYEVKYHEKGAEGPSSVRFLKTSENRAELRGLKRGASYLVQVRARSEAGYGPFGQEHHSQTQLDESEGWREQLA

B1: 93 (antibody, V domains shown)
VL: EIVMTQSPATLSVSPGERATLSCRASENIYRNLAWYQQKPGQSPRLLIYAATNLADGIPARFSGSGSGTEYTLTISSLQSEDFAVYYCQHFWGTPWTFGQGTKVEIK
VH: QVQLVQSGSELKKPGASVKVSCKASGYTFTDYSMHWVRQAPGQGLEWMGWINTETGEPTYAQGFTGRFVFSLDTSVSTAYLQISSLKAEDTAVYYCARIPLYYYGSRYWYFDVWGQGTTVTVSS
modifications: constant regions without entry; synthetic humanized antibody light chain variable region sequence; synthetic humanized antibody heavy chain variable region sequence
B2: 73 (antibody, V domains shown)
VH: B1 VH with V2I, E46K, Q62D, G63D, T65K
VL: B1 VL
modifications: synthetic humanized antibody heavy chain variable region sequence; synthetic humanized antibody light chain variable region sequence
B3: 71 (antibody, V domains shown)
VH: B1 VH with V2I, E46K
VL: B1 VL
modifications: synthetic humanized antibody heavy chain variable region sequence; synthetic humanized antibody light chain variable region sequence
B4: 140 (antibody, V domains shown)
VH: B1 VH with E46K
VL: DIQMTQSPSSLSASVGDRVTITCRASENIYRNLAWYQQKPGKAPKLLVYAATNLADGVPSRFSGSGSGTDYTLTISSLQPEDFATYYCQHFWGTPWTFGQGTKVEIK
modifications: synthetic humanized antibody heavy chain variable region sequence; synthetic humanized antibody light chain variable region sequence
B5: 95 (antibody, V domains shown)
VL: B1 VL
VH: B1 VH with Q62D, G63D, T65K
modifications: constant regions without entry; synthetic humanized antibody light chain variable region sequence; synthetic humanized antibody heavy chain variable region sequence
B6: 94 (antibody, V domains shown)
VL: B1 VL
VH: B1 VH with E46K
modifications: constant regions without entry; synthetic humanized antibody light chain variable region sequence; synthetic humanized antibody heavy chain variable region sequence
B7: 96 (antibody, V domains shown)
VL: B1 VL
VH: B1 VH with E46K, Q62D, G63D, T65K
modifications: constant regions without entry; synthetic humanized antibody light chain variable region sequence; synthetic humanized antibody heavy chain variable region sequence
B8: 139 (antibody)
VH: B1 VH
VL: B4 VL
chain: ASTKGPSVFPLAPSSRSTSESTAALGCLVKDYFPEPVTVSWNSGALTSGVHTFPAVLQSSGLYSLSSVVTVPSSNFGTQTYTCNVDHKPSNTKVDKTVERKSCVECPPCPAPPAAAPSVFLFPPKPKDTLMISRTPEVTCVVVDVSHEDPEVQFNWYVDGVEVHNAKTKPREEQFNSTFRVVSVLTVVHQDWLNGKEYKCKVSNKGLPAPIEKTISKTKGQPREPQVYTLPPSREEMTKNQVSLTCLVKGFYPSDIAVEWESNGQPENNYKTTPPMLDSDGSFFLYSKLTVDKSRWQQGNVFSCSVMHEALHNHYTQKSLSLSPG
modifications: synthetic humanized antibody heavy chain variable region sequence; synthetic humanized antibody light chain variable region sequence; synthetic antibody constant region sequence

Columns and labels:
Assay in all cases: Selectivity ELISA of humanized antibodies for human Eph receptor
Format in all cases: binding
Settings in all cases: coated protein 1 nM
[1] = biological target: SEAP-His (Homo sapiens, UniProt P05187)
SEAP-His, sequence (P05187 23-511 limits assumed): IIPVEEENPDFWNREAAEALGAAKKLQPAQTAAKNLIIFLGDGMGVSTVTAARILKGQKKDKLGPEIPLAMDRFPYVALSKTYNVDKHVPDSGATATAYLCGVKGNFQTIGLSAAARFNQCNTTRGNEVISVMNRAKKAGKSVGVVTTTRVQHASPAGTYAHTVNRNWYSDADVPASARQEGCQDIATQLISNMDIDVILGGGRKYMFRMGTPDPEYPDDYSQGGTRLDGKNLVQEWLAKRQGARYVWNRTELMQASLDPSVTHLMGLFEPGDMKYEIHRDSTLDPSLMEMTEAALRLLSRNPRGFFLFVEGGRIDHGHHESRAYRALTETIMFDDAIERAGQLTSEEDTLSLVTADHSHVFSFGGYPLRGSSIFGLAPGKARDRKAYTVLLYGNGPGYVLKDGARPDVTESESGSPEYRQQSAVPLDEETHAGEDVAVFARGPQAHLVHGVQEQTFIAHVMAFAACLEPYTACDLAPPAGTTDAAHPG
Method in brief: (§1)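 Read-out is A450 after TMB development stopped with 1N H2SO4. Plates bore anti-His-captured human Eph extracellular region-SEAP-His proteins at 1 nM final, made in Expi293F cells. Humanized antibody binding ran 1 h at room temperature before HRP-labeled anti-IgG detection.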

[2] = biological target: T4, human EphA2 (Homo sapiens, UniProt P29317)
T4 construct: a protein of the extracellular region of each human Eph receptor fused with the SEAP protein and the His tag; made in house; host or cells: Expi293F cells (culture supernatant)
T4 sequence (P29317 24-537 limits assumed): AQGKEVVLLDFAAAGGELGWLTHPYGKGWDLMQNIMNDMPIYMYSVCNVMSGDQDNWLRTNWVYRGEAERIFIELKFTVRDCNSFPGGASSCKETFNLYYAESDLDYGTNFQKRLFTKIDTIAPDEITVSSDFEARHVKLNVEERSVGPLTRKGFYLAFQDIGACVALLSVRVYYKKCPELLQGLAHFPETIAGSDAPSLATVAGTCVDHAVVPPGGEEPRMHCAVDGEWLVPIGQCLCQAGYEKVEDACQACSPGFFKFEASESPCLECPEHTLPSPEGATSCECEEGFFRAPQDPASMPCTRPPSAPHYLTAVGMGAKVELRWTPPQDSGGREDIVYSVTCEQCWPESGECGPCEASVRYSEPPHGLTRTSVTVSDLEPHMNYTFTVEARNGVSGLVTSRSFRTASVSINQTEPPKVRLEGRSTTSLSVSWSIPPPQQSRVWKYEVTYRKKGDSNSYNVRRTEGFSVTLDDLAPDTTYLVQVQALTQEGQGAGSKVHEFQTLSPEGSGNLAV
Method in brief: as §1

[3] = biological target: T1, human EphA3
Method in brief: as §1

[4] = biological target: T2, human EphB2
Method in brief: as §1

[5] = biological target: T3, human EphB4
Method in brief: as §1

Molecule	SEAP-His: absorbance at 450 nm, percentage with respect to hEphA4-SEAP-His as 100% [1] [%]	hEphA2-SEAP-: absorbance at 450 nm, percentage with respect to hEphA4-SEAP-His as 100% [2] [%]	hEphA3-SEAP-: absorbance at 450 nm, percentage with respect to hEphA4-SEAP-His as 100% [3] [%]	hEphB2-SEAP-: absorbance at 450 nm, percentage with respect to hEphA4-SEAP-His as 100% [4] [%]	hEphB4-SEAP-: absorbance at 450 nm, percentage with respect to hEphA4-SEAP-His as 100% [5] [%]
B1	5.0	5.0	5.1	5.0	5.0
B2	5.8	5.7	5.8	5.6	5.7
B3	5.6	5.7	5.6	5.5	5.5
B4	5.4	5.3	5.5	5.3	5.4
B5	4.4	4.2	4.8	4.7	4.6
B6	6.7	6.4	6.8	7.0	6.5
B7	5.5	5.3	5.5	5.5	5.5
B8	5.7	5.9	5.9	5.7	5.7
